The results in this text go back to article PMC11592157, “Exploring the Biological Activity of a Humanized Anti-CD99 ScFv and Antibody for Targeting T Cell Malignancies” (Biomolecules, 2024).

Where no end group is shown, it is not given here. The star is where a group is joined. Biotin = O=C1N[C@H]2[C@H](CS[C@H]2CCCCC(=O)*)N1; Ahx = NCCCCCC(=O)O

Assay [1] concerns the target T1, CD99 peptide number 6 (Biotin-Ahx-AVVDGENDDPRPPNP) (human).
T1 peptide: {Biotin-Ahx}-AVVDGENDDPRPPNP
Briefly: BLI. A general note: BLI is a label-free optical method that tracks binding on a fibre tip over time.

The target in assay [2] is T2, CD99 peptide number 6 (Biotin-Ahx-AVVDGENDDPRPPNP) (Homo sapiens).
T2 construct: stretch of human CD99
T2 chain: {Biotin-Ahx}-AVVDGENDDPRPPNP
As to the kind of experiment: BLI; Biotin-Ahx-AVVDGENDDPRPPNP (10 ug/mL) loaded on streptavidin biosensors; antibody 0.625 to 10 ug/mL in PBS with 0.05% Tween 20; Octet K2. The following applies: both partners purified.

Assay [3] has as its target T3, CD99ExhIgG (Homo sapiens, UniProt P14209).
T3 construct: extracellular part of human CD99; also called CD99ExIgG; recombinant CD99ExhIgG; source: HEK293T stably expressing, culture supernatant, purified (HiTrap Protein G)
As to the kind of experiment: ELISA; indirect ELISA; CD99ExhIgG (or CD147Rg as negative control) coated on the plate at 4 °C overnight; purified HuScFvMT99/3 (HIS6X) at 1, 5 and 10 ug/mL, room temperature 1 h; detected with HRP anti-His tag antibody. The following applies: both partners purified.

T3 sequence (P14209 23-122): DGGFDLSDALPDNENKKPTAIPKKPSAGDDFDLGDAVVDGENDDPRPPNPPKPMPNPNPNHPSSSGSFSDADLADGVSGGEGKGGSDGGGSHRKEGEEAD

B1: mouse anti-CD99 monoclonal antibody MT99/3 (antibody, V domains shown)
VH: VQLQQSGAELVKPGASVRLSCTLSGFNIKDTYIHWVNQRPEQGLEWIGRIDPGNGNIKYDPKFQGKATITADTSSNKVYLHLSSLTSEDTAVYYCARSGGYDFDYWGQGTTLTVSS
VL: DVVMTQTPLSLPVSLGYQVSISCRSSQSLVHSNGNTYLHWYLQKPGQSPKLLIYTVSNRFSGVPDRFSGSGSGTDFTLKISRVEAEDLGVYFCSQSTYVPYTFGGGTKLEKK
notes: mouse IgG heavy constant region; Parent antibody of m1 and m2; also called mAb MT99/3; mouse MT99/3
What is called koff is a measure of how fast the partners let go of each other. Low readings indicate slow dissociation, high ones fast dissociation. A word on the Kd: it is the constant that tells how readily two partners part at equilibrium. A lower Kd goes with tighter binding. B1 had a koff in assay [1] of 8.06e-05 s⁻¹. In addition, binding in assay [2] was put at a Kd of 316 pM.

B2: HuScFvMT99/3 (HIS6X) (scFv, V domains shown)
VH: QVQLQESGPGLVKPSETLSLTCTLSGFNIKDTYIHWVRQPPGKGLEWIGRIDPGNGNIKYDPKFQGRATISADTSKNQVSLNLDSVSAADTAIYYCARSGGYDFDYWGKGSTVTVSS
VL: VQMTQSPSSLSASVGDRVTITCRSSQSLVHSNGNTYLHWYQQKPGKAPKLLIYTVSNRFSGVPSRFSGSGSGTDFTFTISSLQPEDIATYFCSQSTYVPYTFGPGTKVDIK
notes: V-KAPPA domain of HuScFvMT99/3; linker of the ScFvkh format (V-KAPPA-linker-VH); VH domain of HuScFvMT99/3; order V-KAPPA-linker-VH; cloned NdeI/XhoI into pET-21a; also called humanized single-chain Fv MT99/3; humanized ScFv variant of mAb MT99/3; source: E. coli Origami B (DE3), purified (Ni-NTA agarose); not shown: His6, C-terminal, kept
Regarding B2, the binding result in assay [3] is “binds”.
